# Laboratory results published in patent publication US20160031958.
# T1: FLAG-REST (810-910)-GFP reporter peptide, unmutated
# T1 chain: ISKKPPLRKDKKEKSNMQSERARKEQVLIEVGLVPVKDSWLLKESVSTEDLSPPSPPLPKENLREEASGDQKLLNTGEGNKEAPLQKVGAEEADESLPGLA
# T2: FLAG-REST (unmutated, full-length), Q13127
# T2 chain: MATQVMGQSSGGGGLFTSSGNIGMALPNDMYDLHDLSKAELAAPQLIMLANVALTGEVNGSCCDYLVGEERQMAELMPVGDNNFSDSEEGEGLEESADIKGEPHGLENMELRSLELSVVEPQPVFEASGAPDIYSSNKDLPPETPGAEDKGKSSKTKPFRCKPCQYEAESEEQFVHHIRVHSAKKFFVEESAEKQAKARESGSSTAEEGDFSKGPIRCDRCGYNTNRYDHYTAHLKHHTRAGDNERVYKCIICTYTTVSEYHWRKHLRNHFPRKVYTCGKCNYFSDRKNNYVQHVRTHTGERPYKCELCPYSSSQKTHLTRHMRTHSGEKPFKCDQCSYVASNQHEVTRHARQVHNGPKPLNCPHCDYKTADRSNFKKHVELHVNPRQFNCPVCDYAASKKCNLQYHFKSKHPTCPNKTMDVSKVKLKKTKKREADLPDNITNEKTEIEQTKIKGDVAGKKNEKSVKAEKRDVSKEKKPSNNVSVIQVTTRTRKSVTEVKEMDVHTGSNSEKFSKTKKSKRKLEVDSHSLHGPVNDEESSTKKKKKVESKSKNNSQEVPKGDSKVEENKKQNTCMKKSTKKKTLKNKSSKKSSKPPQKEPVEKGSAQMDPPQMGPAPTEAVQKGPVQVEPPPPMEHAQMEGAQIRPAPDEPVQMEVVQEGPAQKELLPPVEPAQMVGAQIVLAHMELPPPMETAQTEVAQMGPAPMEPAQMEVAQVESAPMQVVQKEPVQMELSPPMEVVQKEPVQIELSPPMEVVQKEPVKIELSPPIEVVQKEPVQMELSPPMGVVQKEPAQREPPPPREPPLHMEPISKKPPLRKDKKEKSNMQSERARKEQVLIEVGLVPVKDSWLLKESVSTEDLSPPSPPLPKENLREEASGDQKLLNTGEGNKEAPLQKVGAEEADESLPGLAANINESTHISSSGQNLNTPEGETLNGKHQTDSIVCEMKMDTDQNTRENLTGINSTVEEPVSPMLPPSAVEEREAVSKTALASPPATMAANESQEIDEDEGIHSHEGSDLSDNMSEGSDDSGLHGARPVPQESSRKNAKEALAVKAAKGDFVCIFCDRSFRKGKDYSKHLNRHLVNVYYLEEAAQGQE
# B1: FLAG-CTDSP1 (protein)
# chain: MDSSAVITQISKEEARGPLRGKGDQKSAASQKPRSRGILHSLFCCVCRDDGEALPAHSGAPLLVEENGAIPKQTPVQYLLPEAKAQDSDKICVVIDLDETLVHSSFKPVNNADFIIPVEIDGVVHQVYVLKRPHVDEFLQRMGELFECVLFTASLAKYADPVADLLDKWGAFRARLFRESCVFHRGNYVKDLSRLGRDLRRVLILDNSPASYVFHPDNAVPVASWFDNMSDTELHDLLPFFEQLSRVDDVYSVLRQPRPGS
# Columns and labels:
# [1] = target: T1, FLAG-REST (810-910)-GFP reporter …
# [2] = target: T2, FLAG-REST (unmutated, full-length), …
protein,measurement,setting,value
B1,in-gel GFP fluorescence on native gel (mobility shift),[1],Dephosphorylation by CTDSP1 was also observed in the REST reporter peptides
same,Western blot with REST phospho-specific polyclonal antibody,[2],exogenously expressed FLAG-CTDSP1 dephosphorylated these sites in full-length REST
